From US8969060B2, “Modified glucose dehydrogenase” (Ikeda Food Research Co., Ltd., priority 2011, dated 2015) come the findings set out here.

Series [1] can be described thus: Relative enzymatic activity of GLD (DCIP/1-m-PMS, plate reader, yeast culture supernatant) with 1,10-phenanthroline present. The settings on record: site-specific mutants, inhibitor final concentration 1 mM. It counts as biochemical. Summed up: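 Inhibitor at 1 mM final substitutes for the methanol in the reagent, and the sample rate is expressed as % of the inhibitor-free blank. Rates come from ΔA600/min of DCIP with glucose and 1-m-PMS at pH 7.0, using supernatants of YPD-grown yeast clones (24 h, 30° C.).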

The nature of series [2]: Relative enzymatic activity of GLD (DCIP/1-m-PMS, plate reader, yeast culture supernatant) with proflavin hydrochloride present. It counts as biochemical. The settings on record: site-specific mutants, inhibitor final concentration 1 mM. Summed up:
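Culture supernatant diluted and mixed with reagent of phosphate buffer pH 7.0, 1.0 M D-glucose, 3 mM DCIP, 3 mM 1-m-PMS and methanol (0.1:1:0.14:0.2:0.06). DCIP absorbance decrease at 600 nm followed; proflavin hydrochloride in methanol replaced methanol at 1 mM final. Activity expressed as % of inhibitor-free blank.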

“And” between values parts separate entries of the source, which are not always exact repeats. Identical values can stand only once.

B1: K354G: modified GLD: SEQ ID NO: 1 with substitution K354G (protein, listed as Aspergillus terreus)
chain: MLGKLSFLSALSLAVAAPLSNSTSAKYDYIVIGGGTSGLAVANRLSEDPNVNVLILEAGGSVWNNPNVTNVDGYGLAFGSDIDWQYQSVNQPYGGNLSQVLRAGKALGGTSTINGMAYTRAEDVQIDAWETIGNTGWTWKNLFPYYRKSENFTVPTKSQTSLGASYEAGAHGHEGPLDVAFTQIESNNLTTYLNRTFQGMGLPWTEDVNGGKMRGFNLYPSTVNLEEYVREDAARAYYWPYKSRPNLHVLLNTFANRIVWDGEAHDGHITASGVEITSRNGTVRVINAEKEVIVSAGALKSPAILELSGIGNPSVLDKHNIPVKVNLPTVGENLQDQVNSHMDASGNTSISGTGAVSYPDVYDVFGDEAESVAKQIRANLKQYAADTAKANGNIMKAADLERLFEVQYDLIFKGRVPIAEVLNYPGSATSVFAEFWALLPFARGSVHIGSSNPAEFPVINPNYFMLDWDAKSYVAVAKYIRRSFESYPLSSIVKESTPGYDVIPRNASEQSWKEWVFDKNYRSNFHPVGTAAMMPREIGGVVDERLNVYGTTNVRVVDASVLPFQVCGHLVSTLYAVAERAADLIKADAGRR
modifications: SIGNAL (1)..(19)
With B1, in series [1], the “Relative Activity [%] 1,10-Phenanthroline” value is listed as 60.8%. For the same molecule, the “Relative Activity [%] Proflavin hydrochloride” value in series [2] was 23.0%.

B2: K354R: modified GLD: SEQ ID NO: 1 with substitution K354R (protein, listed as Aspergillus terreus)
chain: MLGKLSFLSALSLAVAAPLSNSTSAKYDYIVIGGGTSGLAVANRLSEDPNVNVLILEAGGSVWNNPNVTNVDGYGLAFGSDIDWQYQSVNQPYGGNLSQVLRAGKALGGTSTINGMAYTRAEDVQIDAWETIGNTGWTWKNLFPYYRKSENFTVPTKSQTSLGASYEAGAHGHEGPLDVAFTQIESNNLTTYLNRTFQGMGLPWTEDVNGGKMRGFNLYPSTVNLEEYVREDAARAYYWPYKSRPNLHVLLNTFANRIVWDGEAHDGHITASGVEITSRNGTVRVINAEKEVIVSAGALKSPAILELSGIGNPSVLDKHNIPVKVNLPTVGENLQDQVNSHMDASGNTSISGTRAVSYPDVYDVFGDEAESVAKQIRANLKQYAADTAKANGNIMKAADLERLFEVQYDLIFKGRVPIAEVLNYPGSATSVFAEFWALLPFARGSVHIGSSNPAEFPVINPNYFMLDWDAKSYVAVAKYIRRSFESYPLSSIVKESTPGYDVIPRNASEQSWKEWVFDKNYRSNFHPVGTAAMMPREIGGVVDERLNVYGTTNVRVVDASVLPFQVCGHLVSTLYAVAERAADLIKADAGRR
modifications: SIGNAL (1)..(19)
As to B2, in series [1], the “Relative Activity [%] 1,10-Phenanthroline” value amounted to 64.4%. In addition, the “Relative Activity [%] Proflavin hydrochloride” value in series [2] came out at 12.6%.

B3: K354Q: modified GLD: SEQ ID NO: 1 with substitution K354Q (protein, listed as Aspergillus terreus)
chain: MLGKLSFLSALSLAVAAPLSNSTSAKYDYIVIGGGTSGLAVANRLSEDPNVNVLILEAGGSVWNNPNVTNVDGYGLAFGSDIDWQYQSVNQPYGGNLSQVLRAGKALGGTSTINGMAYTRAEDVQIDAWETIGNTGWTWKNLFPYYRKSENFTVPTKSQTSLGASYEAGAHGHEGPLDVAFTQIESNNLTTYLNRTFQGMGLPWTEDVNGGKMRGFNLYPSTVNLEEYVREDAARAYYWPYKSRPNLHVLLNTFANRIVWDGEAHDGHITASGVEITSRNGTVRVINAEKEVIVSAGALKSPAILELSGIGNPSVLDKHNIPVKVNLPTVGENLQDQVNSHMDASGNTSISGTQAVSYPDVYDVFGDEAESVAKQIRANLKQYAADTAKANGNIMKAADLERLFEVQYDLIFKGRVPIAEVLNYPGSATSVFAEFWALLPFARGSVHIGSSNPAEFPVINPNYFMLDWDAKSYVAVAKYIRRSFESYPLSSIVKESTPGYDVIPRNASEQSWKEWVFDKNYRSNFHPVGTAAMMPREIGGVVDERLNVYGTTNVRVVDASVLPFQVCGHLVSTLYAVAERAADLIKADAGRR
modifications: SIGNAL (1)..(19)
As to B3, in series [1], the “Relative Activity [%] 1,10-Phenanthroline” value is reported as 71.4%. Besides, the “Relative Activity [%] Proflavin hydrochloride” value in series [2] was 12.5%.

B4: K354H: modified GLD: SEQ ID NO: 1 with substitution K354H (protein, listed as Aspergillus terreus)
chain: MLGKLSFLSALSLAVAAPLSNSTSAKYDYIVIGGGTSGLAVANRLSEDPNVNVLILEAGGSVWNNPNVTNVDGYGLAFGSDIDWQYQSVNQPYGGNLSQVLRAGKALGGTSTINGMAYTRAEDVQIDAWETIGNTGWTWKNLFPYYRKSENFTVPTKSQTSLGASYEAGAHGHEGPLDVAFTQIESNNLTTYLNRTFQGMGLPWTEDVNGGKMRGFNLYPSTVNLEEYVREDAARAYYWPYKSRPNLHVLLNTFANRIVWDGEAHDGHITASGVEITSRNGTVRVINAEKEVIVSAGALKSPAILELSGIGNPSVLDKHNIPVKVNLPTVGENLQDQVNSHMDASGNTSISGTHAVSYPDVYDVFGDEAESVAKQIRANLKQYAADTAKANGNIMKAADLERLFEVQYDLIFKGRVPIAEVLNYPGSATSVFAEFWALLPFARGSVHIGSSNPAEFPVINPNYFMLDWDAKSYVAVAKYIRRSFESYPLSSIVKESTPGYDVIPRNASEQSWKEWVFDKNYRSNFHPVGTAAMMPREIGGVVDERLNVYGTTNVRVVDASVLPFQVCGHLVSTLYAVAERAADLIKADAGRR
modifications: SIGNAL (1)..(19)
Take B4: the “Relative Activity [%] 1,10-Phenanthroline” value in series [1] was 52.6% and 51.0%. Moreover, the “Relative Activity [%] Proflavin hydrochloride” value in series [2] is 11.1% and 11.6%.

B5: K354P: modified GLD: SEQ ID NO: 1 with substitution K354P (protein, listed as Aspergillus terreus)
chain: MLGKLSFLSALSLAVAAPLSNSTSAKYDYIVIGGGTSGLAVANRLSEDPNVNVLILEAGGSVWNNPNVTNVDGYGLAFGSDIDWQYQSVNQPYGGNLSQVLRAGKALGGTSTINGMAYTRAEDVQIDAWETIGNTGWTWKNLFPYYRKSENFTVPTKSQTSLGASYEAGAHGHEGPLDVAFTQIESNNLTTYLNRTFQGMGLPWTEDVNGGKMRGFNLYPSTVNLEEYVREDAARAYYWPYKSRPNLHVLLNTFANRIVWDGEAHDGHITASGVEITSRNGTVRVINAEKEVIVSAGALKSPAILELSGIGNPSVLDKHNIPVKVNLPTVGENLQDQVNSHMDASGNTSISGTPAVSYPDVYDVFGDEAESVAKQIRANLKQYAADTAKANGNIMKAADLERLFEVQYDLIFKGRVPIAEVLNYPGSATSVFAEFWALLPFARGSVHIGSSNPAEFPVINPNYFMLDWDAKSYVAVAKYIRRSFESYPLSSIVKESTPGYDVIPRNASEQSWKEWVFDKNYRSNFHPVGTAAMMPREIGGVVDERLNVYGTTNVRVVDASVLPFQVCGHLVSTLYAVAERAADLIKADAGRR
modifications: SIGNAL (1)..(19)
Consider B5, for which the “Relative Activity [%] 1,10-Phenanthroline” value in series [1] was 64.3%. For the same molecule, the “Relative Activity [%] Proflavin hydrochloride” value in series [2] is listed as 16.7%.

B6: K354Y: modified GLD: SEQ ID NO: 1 with substitution K354Y (protein, listed as Aspergillus terreus)
chain: MLGKLSFLSALSLAVAAPLSNSTSAKYDYIVIGGGTSGLAVANRLSEDPNVNVLILEAGGSVWNNPNVTNVDGYGLAFGSDIDWQYQSVNQPYGGNLSQVLRAGKALGGTSTINGMAYTRAEDVQIDAWETIGNTGWTWKNLFPYYRKSENFTVPTKSQTSLGASYEAGAHGHEGPLDVAFTQIESNNLTTYLNRTFQGMGLPWTEDVNGGKMRGFNLYPSTVNLEEYVREDAARAYYWPYKSRPNLHVLLNTFANRIVWDGEAHDGHITASGVEITSRNGTVRVINAEKEVIVSAGALKSPAILELSGIGNPSVLDKHNIPVKVNLPTVGENLQDQVNSHMDASGNTSISGTYAVSYPDVYDVFGDEAESVAKQIRANLKQYAADTAKANGNIMKAADLERLFEVQYDLIFKGRVPIAEVLNYPGSATSVFAEFWALLPFARGSVHIGSSNPAEFPVINPNYFMLDWDAKSYVAVAKYIRRSFESYPLSSIVKESTPGYDVIPRNASEQSWKEWVFDKNYRSNFHPVGTAAMMPREIGGVVDERLNVYGTTNVRVVDASVLPFQVCGHLVSTLYAVAERAADLIKADAGRR
modifications: SIGNAL (1)..(19)
As for B6, the “Relative Activity [%] 1,10-Phenanthroline” value in series [1] was found to be 56.0%. Moreover, in series [2], the “Relative Activity [%] Proflavin hydrochloride” value came to 15.1%.

B7: K354M: modified GLD: SEQ ID NO: 1 with substitution K354M (protein, listed as Aspergillus terreus)
chain: MLGKLSFLSALSLAVAAPLSNSTSAKYDYIVIGGGTSGLAVANRLSEDPNVNVLILEAGGSVWNNPNVTNVDGYGLAFGSDIDWQYQSVNQPYGGNLSQVLRAGKALGGTSTINGMAYTRAEDVQIDAWETIGNTGWTWKNLFPYYRKSENFTVPTKSQTSLGASYEAGAHGHEGPLDVAFTQIESNNLTTYLNRTFQGMGLPWTEDVNGGKMRGFNLYPSTVNLEEYVREDAARAYYWPYKSRPNLHVLLNTFANRIVWDGEAHDGHITASGVEITSRNGTVRVINAEKEVIVSAGALKSPAILELSGIGNPSVLDKHNIPVKVNLPTVGENLQDQVNSHMDASGNTSISGTMAVSYPDVYDVFGDEAESVAKQIRANLKQYAADTAKANGNIMKAADLERLFEVQYDLIFKGRVPIAEVLNYPGSATSVFAEFWALLPFARGSVHIGSSNPAEFPVINPNYFMLDWDAKSYVAVAKYIRRSFESYPLSSIVKESTPGYDVIPRNASEQSWKEWVFDKNYRSNFHPVGTAAMMPREIGGVVDERLNVYGTTNVRVVDASVLPFQVCGHLVSTLYAVAERAADLIKADAGRR
modifications: SIGNAL (1)..(19)
Take B7: in series [1], the “Relative Activity [%] 1,10-Phenanthroline” value was determined as 53.5%. The “Relative Activity [%] Proflavin hydrochloride” value in series [2] amounted to 10.7%.

B8: K354N: modified GLD: SEQ ID NO: 1 with substitution K354N (protein, listed as Aspergillus terreus)
chain: MLGKLSFLSALSLAVAAPLSNSTSAKYDYIVIGGGTSGLAVANRLSEDPNVNVLILEAGGSVWNNPNVTNVDGYGLAFGSDIDWQYQSVNQPYGGNLSQVLRAGKALGGTSTINGMAYTRAEDVQIDAWETIGNTGWTWKNLFPYYRKSENFTVPTKSQTSLGASYEAGAHGHEGPLDVAFTQIESNNLTTYLNRTFQGMGLPWTEDVNGGKMRGFNLYPSTVNLEEYVREDAARAYYWPYKSRPNLHVLLNTFANRIVWDGEAHDGHITASGVEITSRNGTVRVINAEKEVIVSAGALKSPAILELSGIGNPSVLDKHNIPVKVNLPTVGENLQDQVNSHMDASGNTSISGTNAVSYPDVYDVFGDEAESVAKQIRANLKQYAADTAKANGNIMKAADLERLFEVQYDLIFKGRVPIAEVLNYPGSATSVFAEFWALLPFARGSVHIGSSNPAEFPVINPNYFMLDWDAKSYVAVAKYIRRSFESYPLSSIVKESTPGYDVIPRNASEQSWKEWVFDKNYRSNFHPVGTAAMMPREIGGVVDERLNVYGTTNVRVVDASVLPFQVCGHLVSTLYAVAERAADLIKADAGRR
modifications: SIGNAL (1)..(19)
On to B8, for which the “Relative Activity [%] 1,10-Phenanthroline” value in series [1] is 61.9%. In addition, in series [2], the “Relative Activity [%] Proflavin hydrochloride” value is given as 15.1%.
